Assay results taken from paper doi:10.1101/2021.09.08.459485 (2021).

T1: SARS-CoV-2 Spike protein peptide on HLA-DPB1*04:01 (human)
T1 peptide: CTFEYVSQPFLMDLE

T2: SARS-CoV-2 Spike protein peptide on HLA-DPB1*04:01 (human)
T2 peptide: TFEYVSQPFLMDLE

B1: TCR4.1 (TCR)
alpha TRAV35 TRAJ42 CDR3: CAGMNYGGSQGNLIF
beta TRBV4-1 TRBJ1-2 CDR3: CASSQGVGYTF
B2: TCR6.3 (TCR)
alpha TRAV35 TRAJ42 CDR3: CAGMNYGGSQGNLIF
beta TRBV6-3 TRBJ1-2 CDR3: CASSYRGAYGYTF

Assays:
[1] = target: T1, SARS-CoV-2 Spike protein peptide on …; test: activation reporter or marker
[2] = target: T2, SARS-CoV-2 Spike protein peptide on …; test: multimer staining

| Binder | binding result [1] | binding result [2] |
| --- | --- | --- |
| B1 | recognises | recognises |
| B2 | recognises | recognises |
